No end group written: not given here.
T1: ADAM10 (Homo sapiens, UniProt O14672)
T1 sequence (O14672 214-748): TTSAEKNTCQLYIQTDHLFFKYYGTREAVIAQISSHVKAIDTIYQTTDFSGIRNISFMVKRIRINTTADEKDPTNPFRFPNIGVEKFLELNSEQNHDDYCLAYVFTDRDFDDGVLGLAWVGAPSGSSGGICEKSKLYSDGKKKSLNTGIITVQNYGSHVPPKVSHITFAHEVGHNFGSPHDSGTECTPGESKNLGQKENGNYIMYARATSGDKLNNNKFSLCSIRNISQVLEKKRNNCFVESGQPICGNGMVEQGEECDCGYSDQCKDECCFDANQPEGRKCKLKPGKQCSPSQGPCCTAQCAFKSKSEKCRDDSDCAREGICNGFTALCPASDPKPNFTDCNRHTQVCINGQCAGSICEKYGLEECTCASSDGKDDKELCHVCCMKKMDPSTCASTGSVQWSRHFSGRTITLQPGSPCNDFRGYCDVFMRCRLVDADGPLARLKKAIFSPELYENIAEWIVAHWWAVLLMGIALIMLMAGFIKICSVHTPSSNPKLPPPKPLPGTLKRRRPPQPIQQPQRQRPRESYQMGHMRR


Assays:
ADAM10 [1] = biological target: T1, ADAM10; assay: In vitro inhibition of recombinant ADAM10; assay type: biochemical; settings: Hepes buffer pH 7.5
Description: FIG. 2E is a line graph showing inhibition of recombinant ADAM10 and ADAM17 by DPC333 and GI254023 in vitro in Hepes buffer at pH 7.5.
Enzyme selectivity of the ADAM inhibitors applied was determined in an in vitro cleavage assay and both inhibitors were used over a broad concentration range to investigate effects on TREM2 cell surface expression in CHO-hDAP12-hTREM2 cells and human M2A macrophages.

CHO-hDAP12-hTREM2 cells = assay: Live cell imaging of TREM2 cell surface expression in CHO-hDAP12-hTREM2 cells; assay type: cell-based; settings: overnight treatment
Excerpt: (§1) CHO cells were transfected to co-express hDAP12 and hTREM2 using Lipofectamine LTX reagent (Thermofischer) according to the manufacturer's recommendations. One positive clone was selected and designated CHO-hDAP12-hTREM2. Human M2A macrophages were obtained from buffy coat using a negative isolation kit for monocytes (Stem cell technologies) and differentiated for 5 days in RPMI1640 medium with Glutamax (Gibco) supplemented with 10% FBS (Gibco), PenStrep (Gibco), 1% Sodium Pyruvate (Gibco), 0.025 M HEPES Buffer (Gibco), 0.05 mM β-mercaptoethanol (Gibco), M-CSF (40 ng/ml) and IL-4 (50 ng/ml). Cell surface TREM2 was detected by FACS as described above.
(§2) Human M2A macrophages or CHO-hDAP12-hTREM2 were seeded on 384 well plates (Greiner) and treated with ADAM inhibitors DPC333 or GI254023 at concentrations indicated in the figures. 16 h later cells were treated for 30 minutes with PMA (50 ng/ml) or 0.1% DMSO for 30 minutes. Plates were put on ice and stained with goat anti human TREM2 antibody AF1828 (R&D Systems) or isotype control and Hoechst stain followed by incubation with the secondary Alexa Fluor 488 conjugated anti goat antibody (Molecular Probes). Images were acquired using an InCe112000 analyzer (GE Healthcare). For image quantification the free open source software CellProfiler was applied.
To determine the contribution of ADAM10 or ADAM17 to shedding of TREM2 ectodomain, selective inhibitors were identified: DPC333 (Qian et al., Drug Metabolism and Disposition: the Biological Fate of Chemicals 35, 1916-1925, 2007) and GI254023 (Hundhausen et al., Blood. 2003; 102:1186-1195). DPC333 and GI254023 were characterized for inhibitory selectivity towards ADAM10 and ADAM17. […] Using live cell imaging, cell surface expression of hTREM2 was assessed in CHO-hDAP12-hTREM2 cells after overnight treatment of the cells with the two ADAM inhibitors under conditional shedding conditions (FIG. 2A) or after treatment of the cells with PMA (FIG. 2B). […] This effect might be attributed to true ADAM10 inhibition or it might be caused by unspecific inhibition of ADAM17 by GI254023 when used at high concentrations. […] To get closer to a physiological cellular system, a similar experiment was conducted in human M2A macrophages differentiated from CD^14+ human monocytes (FIGS. 2C-2D).

human M2A macrophages = assay: Live cell imaging of TREM2 cell surface expression in human M2A macrophages; assay type: cell-based; settings: steady-state shedding, FIG. 2C
Excerpt: as §1, §2
To determine the contribution of ADAM10 or ADAM17 to shedding of TREM2 ectodomain, selective inhibitors were identified: DPC333 (Qian et al., Drug Metabolism and Disposition: the Biological Fate of Chemicals 35, 1916-1925, 2007) and GI254023 (Hundhausen et al., Blood. 2003; 102:1186-1195). DPC333 and GI254023 were characterized for inhibitory selectivity towards ADAM10 and ADAM17. […] Using live cell imaging, cell surface expression of hTREM2 was assessed in CHO-hDAP12-hTREM2 cells after overnight treatment of the cells with the two ADAM inhibitors under conditional shedding conditions (FIG. 2A) or after treatment of the cells with PMA (FIG. 2B). […]

ADAM17 [2] = biological target: T2, ADAM17 (Homo sapiens, UniProt P78536); assay: In vitro inhibition of recombinant ADAM17; assay type: biochemical; settings: Hepes buffer pH 7.5
T2 sequence (P78536 215-824): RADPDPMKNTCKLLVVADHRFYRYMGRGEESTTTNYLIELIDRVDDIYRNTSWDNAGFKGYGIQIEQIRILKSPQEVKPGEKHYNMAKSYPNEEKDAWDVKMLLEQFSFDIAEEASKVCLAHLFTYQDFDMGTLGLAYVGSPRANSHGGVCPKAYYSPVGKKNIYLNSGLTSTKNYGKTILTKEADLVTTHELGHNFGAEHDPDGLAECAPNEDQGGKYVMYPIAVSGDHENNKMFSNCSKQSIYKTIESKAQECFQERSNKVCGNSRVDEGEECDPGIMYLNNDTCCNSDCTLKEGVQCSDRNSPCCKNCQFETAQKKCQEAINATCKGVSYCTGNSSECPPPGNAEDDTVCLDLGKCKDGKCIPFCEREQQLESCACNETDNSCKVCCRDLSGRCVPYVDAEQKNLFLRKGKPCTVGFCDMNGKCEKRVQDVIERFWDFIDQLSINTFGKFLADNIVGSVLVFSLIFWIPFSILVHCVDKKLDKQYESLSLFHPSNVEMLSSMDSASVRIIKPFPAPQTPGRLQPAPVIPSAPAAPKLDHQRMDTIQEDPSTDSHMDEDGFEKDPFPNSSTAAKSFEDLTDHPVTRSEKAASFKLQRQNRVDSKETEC

ADAM17 [3] = biological target: T2, ADAM17; assay: In vitro cleavage of TREM2 stalk region peptides by ADAM17 (HPLC); assay type: biochemical; settings: neutral buffer, up to 48 hours, HPLC of parent peptide
Excerpt: FIGS. 5A-5E show ADAM17 cleaves TREM2 stalk region peptides in vitro at H157-S158. […] All peptides were obtained with an N-terminal 7-methoxycoumarin (Mca) fluorescent tag […]. Underlined amino acids indicates main sheddase cleavage site. AA112-171: SEQ ID NO: 24; Peptide 1: SEQ ID NO: 25; Peptide 2: SEQ ID NO: 26; Peptide 3: SEQ ID NO: 27; Peptide la: SEQ ID NO: 28; Peptide 2a: SEQ ID NO: 29; Peptide 4: SEQ ID NO: 30; Peptide 5: SEQ ID NO: 31; Peptide 6: SEQ ID NO: 32. […] FIG. 5C discloses SEQ ID NOS 83, 51 and 84, respectively, in order of appearance.
(§3) In order to identify the cleavage site of ADAM10/ADAM17 within the stalk region of TREM2, in vitro cleavage patterns of stalk region-derived peptides were investigated and confirmed the cleavage site by determination of the C-terminus of shed soluble TREM2 from cell culture supernatants. A series of peptides covering the stalk region were designed for in vitro investigation of ADAM10/ADAM17 cleavage (FIG. 5A). All peptides were obtained with an N-terminal 7-methoxycoumarin (Mca) fluorescent tag. Peptides 1-3, 1a and 2a were incubated with ADAM17 in neutral buffer for up to 48 hours, and reaction was followed by HPLC analysis of aliquots withdrawn at different time points.
(§4) HPLC-MS analysis of the reaction mixture of peptide3/ADAM17 identified one major product, SISRSLLEGEIPFP-NH2(SEQ ID NO: 51), together with 2 minor cleavage products (FIGS. 5B-5C). […] At these time points there was essentially no substrate left. Therefore, it can be concluded that the minor cleavage products originate from secondary ADAM17 cleavage of the main product.

ADAM10 [4] = biological target: T1, ADAM10; assay: In vitro cleavage of TREM2 stalk region peptides by ADAM10; assay type: biochemical; settings: data not shown
Excerpt: as §3, §4
Recent literature gave insight into ADAM10 and ADAM17 preferences for the cleavage of peptides and proteins (Caescu et al., Biochem J 424, 79-88, 2009; Tucher et al., J Proteome Res 13, 2205-2214, 2014). […] After searching for the least preferred amino acids in substrates of ADAM10 and 17, isoleucine was identified as never occurring in P1 of ADAM substrates, and a very low preference for aspartate or proline in P1′ and in P2′. […] In these peptides the H-SI cleavage site was replaced with IPP, IPD, and IDP, respectively.

HEK293-FT cells = assay: FACS analysis of cell surface expression of TREM2 WT and mutants in HEK293-FT cells with or without PMA; assay type: cell-based; settings: co-transfected with hDAP12, 48 h, 30 min 50 ng/ml PMA, ratio of 1 = complete inhibition of shedding, FIG. 4B
Excerpt: FIGS. 4A-4D show the amino acid stretch in the membrane proximal part of the TREM2 stalk region are important for shedding. […] Amino acid numbering according to iProt Q9NZC2. TM: transmembrane region. Gaps indicate deleted amino acids within the respective mutant. Exchanged amino acids in bold. Underlined amino acids indicates main sheddase cleavage site for generation of the C-terminus of TREM2 ectodomain. […] FIG. 4B is a bar graph showing FACS analysis of TREM2 WT and mutants transiently expressed in HEK293-FT cells. Cells were treated 48 hours after transfection with 50 ng/ml PMA or 0.05% DMSO. Cells were detached, labelled with AF1828 antiserum and analyzed by flow cytometry. Data are plotted as the ratio of untreated over PMA treatment for each mutant as mean±S.E. (n=3). Statistical differences to WT were calculated by Anova with Dunnett's multiple comparison test. *P<0.01. TREM2-double mutant was stably expressed in BWZ-lacZ-mDAP12 cells. Cells were seeded on an activating monoclonal antibody or isotype control and reporter gene activity assessed after 16 h. Data are plotted as the ratio of RGA for activating/control Ab as mean±S.E. (n=3). FIG. 4D is a bar graph showing replacement of the three amino acids at the sheddase cleavage site strongly increases TREM2 cell surface expression. FACS analysis of TREM2 WT and mutants transiently expressed in HEK293-FT cells. Cells were treated 48 h after transfection with 50 ng/ml PMA or 0.05% DMSO. Cells were detached, labelled with AF1828 antiserum and analyzed by flow cytometry. Data are plotted as the ratio of untreated over PMA treatment for each mutant as mean±S.E. (n=3). Statistical differences were calculated by Anova with Dunnett's multiple comparison test. *P<0.01.
Human TREM2 mutants were generated using the QuikChange Site-directed Mutagenesis Kit (Stratagene) and confirmed by sequence analysis. Transfections of complementary DNA (cDNA) constructs were carried out in a 1:1 ratio of hDAP12 and TREM2 in HEK-FT cells using Lipofectamine LTX reagent (Thermofischer) according to the manufacturer's recommendations. 48 h after transfection cells were treated for 30 min with 50 ng/ml PMA or 0.05% DMSO and detached with a cell detachment solution Accutase (Sigma) and stained with goat anti human TREM2 antibody AF1828 (R&D Systems) or isotype control followed by incubation with the secondary Alexa Fluor 488 conjugated antibody (Molecular Probes). Acquisition was performed using a BD FACSCanto II (BD biosciences).
Wild-type (WT) TREM2 or TREM2 mutants were transfected together with hDAP12 into HEK-FT cells. 48 h later cells were treated for 30 min with PMA to activate ADAMs at cell surface (see Sommer, Nature Communications 7, 11523, 2016). TREM2 cell surface expression was assessed by FACS, and results are presented as expression ratio of untreated over PMA treatment (FIG. 4B). The evaluation of each construct in the presence and absence of PMA treatment overcomes the possibility that some constructs might display different binding properties for the antiserum and allows direct comparison of changes in TREM2 cell surface expression after activation of sheddases. A ratio of 1 indicates complete inhibition of shedding. […] Next four shorter deletion mutants were generated encompassing this area, each 6 amino acids long (TRUNC1, T2del3-8, T2del6-11 and T2del11-16).

Molecule	Cleavage by ADAM17 (ADAM17 [3])	Cleavage by ADAM10 (ADAM10 [4])	further results
CNC(=O)[C@@H](NC(=O)[C@H](CCCc1ccccc1)[C@H](C)N(O)C=O)C(C)(C)C [GI254023, (2R,3 S)-3-(formyl-hydroxyamino)-2-(3-phenyl-1-propyl) butanoic acid [(1S)-2,2-dimethyl-1-methylcarbamoyl-1-propyl] amide]	–	–	IC50 (ADAM10 [1]): 1.5 nM; TREM2 cell surface levels (CHO-hDAP12-hTREM2 cells; conditional shedding (steady state) conditions, FIG. 2A): limited effect; TREM2 cell surface levels (CHO-hDAP12-hTREM2 cells; then PMA-treated cells, FIG. 2B): complete lack of effect; TREM2 cell surface expression (human M2A macrophages): small effect; IC50 (ADAM17 [2]): 196 nM
Peptide 5: TREM2 stalk peptide, H-SI cleavage site replaced with IPD; SEQ ID NO: 31 (DAHVEIPDSRSLLEGEIPFP)	resistant to in vitro cleavage	slowly cleaved	–
Peptide 6: TREM2 stalk peptide, H-SI cleavage site replaced with IDP; SEQ ID NO: 32 (DAHVEIDPSRSLLEGEIPFP)	resistant to in vitro cleavage	slowly cleaved	–
Peptide 4: TREM2 stalk peptide, H-SI cleavage site replaced with IPP; SEQ ID NO: 30 (DAHVEIPPSRSLLEGEIPFP)	resistant to in vitro cleavage	cleavage resistant	–
Peptide 3: TREM2 stalk region derived synthetic peptide with 7-methoxycoumarin (Mca) tag; SEQ ID NO: 27 (DAHVEHSISRSLLEGEIPFP; also: 7-methoxycoumarin (Mca) tag, position not given here)	Significant cleavage	very similar cleavage pattern	–
T2-WFR: human TREM2 mutant, amino acids 169-172 replaced with larger hydrophobic residues; SEQ ID NO: 47 (protein) MEPLRLLILLFVTELSGAHNTTVFQGVAGQSLQVSCPYDSMKHWGRRKAWCRQLGEKGPCQRVVSTHNLWLLSFLRRWNGSTAITDDTLGGTLTITLRNLQPHDAGLYQCQSLHGSEADTLRKVLVEVLADPLDHRDAGDLWFPGESESFEDAHVEHSISRSLLEGEIWFRWTSILLLLACIFLIKILAASALWAAAWHGQKPGTHPPSELDCGHDPGYQLQTLPGLRDT	–	–	PMA induced TREM2 shedding (TREM2 cell surface expression ratio of untreated over PMA treatment) (HEK293-FT cells): more efficacious
T2-YGG: human TREM2 mutant, amino acids 156-164 replaced with larger hydrophobic residues; SEQ ID NO: 46 (protein) MEPLRLLILLFVTELSGAHNTTVFQGVAGQSLQVSCPYDSMKHWGRRKAWCRQLGEKGPCQRVVSTHNLWLLSFLRRWNGSTAITDDTLGGTLTITLRNLQPHDAGLYQCQSLHGSEADTLRKVLVEVLADPLDHRDAGDLWFPGESESFEDAHVYGGWGGWGPEGEIPFPPTSILLLLACIFLIKILAASALWAAAWHGQKPGTHPPSELDCGHDPGYQLQTLPGLRDT	–	–	PMA induced TREM2 shedding (TREM2 cell surface expression ratio of untreated over PMA treatment) (HEK293-FT cells): trend for reduction of TREM2 shedding

From patent US20200207830A1, “TREM2 MUTANTS RESISTANT TO SHEDDASE CLEAVAGE” (NOVARTIS AG, priority 2017, published 2020)
